Consider three molecules from article PMC8502904, “Glyceraldehyde-3-phosphate dehydrogenase present in extracellular vesicles from Leishmania major suppresses host TNF-alpha expression”.

The target of data set [1] is T1, LmGAPDH (glyceraldehyde-3-phosphate dehydrogenase) (Leishmania major (strain 5ASKH), UniProt Q4Q6Z5 1-361). Put plainly: EMSA; no complex also at higher LmGAPDH concentrations. Conditions: protein: recombinant; tags: His tag (pET15B NdeI/BamHI, Ni-NTA); chain copies: 4; label: 3' biotin; single strand. (A gel shift assay detects complexes by their altered migration in electrophoresis.)

The target of data set [2] is T1, LmGAPDH (glyceraldehyde-3-phosphate …). As to the kind of experiment: EMSA; concentration dependent; supershift with anti-LmGAPDH. To be noted: protein: recombinant; tags: His tag (pET15B NdeI/BamHI, Ni-NTA); chain copies: 4; label: 3' biotin; single strand.
Data set [3] has the same target. Put plainly: competition; about 200-fold excess unlabeled RNA competes with labeled N1. To be noted: protein: recombinant; tags: His tag (pET15B NdeI/BamHI, Ni-NTA); chain copies: 4; label: none; single strand.

On to AGAACAUCUUGGAAAUAGCUCCCAGAAAAGCAAGCAGC (ssRNA) [TNF-alpha 5'-UTR oligonucleotide], for which, in data set [1], the binding result is given as “no binding”.

Take GUGAUUAUUUAUUAUUUAUUUAUUAUUUAUUUAUUUAG (ssRNA) [TNF-alpha 3'-UTR ARE38]: the binding result in data set [2] is “binds”.

For GUGAUUAUUUAUUAUUUAUUUAUUAUUUAUUUAUUUAG (ssRNA) [TNF-alpha 3'-UTR ARE38, unlabeled competitor], in data set [3], the binding result is reported as “binds”.
